Data: paper PMC3796546

How the values were obtained:
Assay in all cases: co-IP with mass spectrometry
REP1 = conditions: cross-linked in vivo with formaldehyde, p value 0.25926
HHF1 = conditions: cross-linked in vivo with formaldehyde, p value 0.08671
SUP35 = conditions: cross-linked in vivo with formaldehyde, p value 0.08282
TY1B-ER1 = conditions: cross-linked in vivo with formaldehyde, p value 0.21132
RPL36A = conditions: cross-linked in vivo with formaldehyde, p value 0.13485
PFK2 = conditions: cross-linked in vivo with formaldehyde, p value 0.14162
ARF2 = conditions: cross-linked in vivo with formaldehyde, p value 0.05060
ADO1 = conditions: cross-linked in vivo with formaldehyde, p value 0.02371
ENO1 = conditions: cross-linked in vivo with formaldehyde, p value 0.14901
TY1B-BR = conditions: cross-linked in vivo with formaldehyde, p value 0.09425
RPL13A/B = conditions: cross-linked in vivo with formaldehyde, p value 0.05060
HOM2 = conditions: cross-linked in vivo with formaldehyde, p value 0.02371

With “N-terminal 3xHA-tagged wild-type Irc20 (from UniProt Q06554) C1239A” the ratio to parent (REP1) was 2, the other: sum (REP1; parent: 2) was 4 and the ratio to parent (HHF1) was 2. For the same substance, the other: sum (HHF1; parent: 4) was 8, the ratio to parent (SUP35) was 2.14 and the other: sum (SUP35; parent: 7) was 15. For the same substance, the ratio to parent (TY1B-ER1) was > 6, the other: sum (TY1B-ER1; parent: 0) was 6 and the ratio to parent (RPL36A) was > 4. It also gave an other: sum (RPL36A; parent: 0) of 4, a ratio to parent (PFK2) of 6 and an other: sum (PFK2; parent: 1) of 6. It also gave a ratio to parent (ARF2) of 2.5, an other: sum (ARF2; parent: 2) of 5 and a ratio to parent (ADO1) of 5. For the same substance, the other: sum (ADO1; parent: 1) was 5, the ratio to parent (ENO1) was 3.5 and the other: sum (ENO1; parent: 2) was 7. For the same substance, the ratio to parent (TY1B-BR) was > 9, the other: sum (TY1B-BR; parent: 0) was 9 and the ratio to parent (RPL13A/B) was 2.2. For the same substance, the other: sum (RPL13A/B; parent: 5) was 11, the ratio to parent (HOM2) was 2 and the other: sum (HOM2; parent: 4) was 8.
